Measurements taken from PMC11124806, “Optimization of Surface Functionalizations for Ring Resonator-Based Biosensors”.

T1: C-reactive protein (CRP) (UniProt P02741 19-224)
T1 sequence: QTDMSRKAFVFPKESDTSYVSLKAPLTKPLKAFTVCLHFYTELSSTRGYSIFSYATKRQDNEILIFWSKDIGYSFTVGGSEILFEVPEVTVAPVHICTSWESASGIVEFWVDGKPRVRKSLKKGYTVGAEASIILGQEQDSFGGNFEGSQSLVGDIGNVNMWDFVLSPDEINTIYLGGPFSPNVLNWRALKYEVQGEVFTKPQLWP


How the values were obtained:
[1] = molecular target: thrombin (Thr) (UniProt P00734;P00734 328-363;364-622); assay: microring resonator (label-free photonic biosensor); 100 nM thrombin, 0.05% Tween 20, MCH-passivated chip; about 71% retained after buffer wash; CRP: 20 mM Hepes, 120 mM NaCl, 5 mM KCl, 1 mM CaCl2, 1 mM MgCl2, pH 7.3, room temperature, 30 min; thrombin: buffer with 0.05% Tween 20 (composition and tempera)
[2] = molecular target: T1, C-reactive protein (CRP); assay: surface sandwich chemiluminescence (anti-CRP antibody-HRP); 100 nM CRP, 1 mM Ca2+, 1 mM Mg2+; still binds after two months storage at 4 C; CRP: 20 mM Hepes, 120 mM NaCl, 5 mM KCl, 1 mM CaCl2, 1 mM MgCl2, pH 7.3, room temperature, 30 min; thrombin: buffer with 0.05% Tween 20 (composition and temperature not in material); conditions: protein: commercial; chain copies: 5; label: 3' TAMRA on some amounts

Binder	binding result [1]	binding result [2]
AGTCCGTGGTAGGGCAGGTTGGGGTGACT (structured_DNA, 5' thiol (5ThioMC6-D, reduced), immobilized on mercaptosilane) [a-Thr]	binds	–
CGAAGGGGATTCGAGGGGTGATTGCGTGCTCCATTTGGTG (ssDNA, 5' thiol (5ThioMC6-D, reduced), immobilized on mercaptosilane) [a-CRP]	–	binds
